In US20170035898A1, “CONJUGATES OF AN IL-15 MOIETY AND A POLYMER” (Nektar Therapeutics, priority 2014, published 2017):

How the values were obtained:
IL-15-Rα-Fc [1] = assay: SPR (Biacore), IL-15Rα-Fc captured by anti-human Fc antibody, Kd from kd/ka
IL-15-Rα-Fc [2] = assay: SPR (Biacore), IL-15Rα-Fc captured by anti-human Fc antibody, test article injected
[3] = system: STAT5 phosphorylation in CTLL-2 cells; assay: Measurement of IL-15 activity of rIL-15 based on STAT5 phosphorylation in CTLL-2 cells (Example 1); format: cell-based
Text: For any given peptide, protein moiety or conjugate, it is possible to determine whether that peptide, protein moiety or conjugate has IL-15 activity. Various methods for determining in vitro IL-15 activity are described in the art. An exemplary approach is based on a pSTAT assay. Briefly, if an IL-15-dependent CTLL-2 cell is exposed to a test article having IL-15 activity, initiation of a signaling cascade results that includes the phosphorylation of STAT5 at tyrosine residue 694 (Tyr694) that can be quantitatively measured.
One day prior to assay, CTLL-2 cells were split into fresh growth medium (RPMI 1640+10% FBS+10% T-STIM+2 mM L-glut+1 mM Na-pyruvate). On the day of assay, cells were pre-incubated in assay medium (RPMI 1640+1% FBS+2 mM L-glut+1 mM Na-pyruvate) for at least 4 hours and then placed in a 96-well plate at 50,000 cells/well in the assay medium.
Dilutions of the test article were prepared in an appropriate buffer immediately prior to assay and each dilution of test article was incubated in a separate well of the CTLL-2 cells. The phosphorylation of STAT5 was then determined using the MSD Phospho (Tyr694)/Total STATa,b Whole Cell Lysate Kit (catalog #K15163D, […], LLC, Gaithersburg, Md.).

[4] = system: STAT5 phosphorylation in CTLL-2 cells; assay: Measurement of IL-15 activity of rIL-15 conjugates based on STAT5 phosphorylation in CTLL-2 cells (Example 8); format: cell-based; settings: 10 minute treatment
Experimental: One day prior to the assay, CTLL-2 cells were split into fresh growth medium [RPMI 1640 supplemented with 10% FBS, 10% T-cell culture supplement (catalog #354115, Corning, Inc., Tewksbury, Mass.), 2 mM L-glutamate, and 1 mM sodium pyruvate]. On the day of assay, cells were pre-incubated in assay medium (RPMI 1640 supplemented with 1% FBS, 2 mM L-glutamate, and 1 mM sodium pyruvate) for at least four hours, and then plated in assay medium in a 96-well plate at 50,000 cells/well. Dilutions of the test article were prepared in an appropriate buffer immediately prior to assay. Stimulation of CTLL-2 cells was initiated by the transfer of 25× test article solutions to triplicate wells containing CTLL-2 cells. Plates were incubated at 37° C., 5% CO2 for 10 minutes, and the reaction was stopped by cell lysis. Detection of phospho-STAT5 and total STAT5 protein levels in cell lysates was performed using the MSD Phospho (Tyr694)/Total STATa,b Whole Cell Lysate Kit (catalog #K15163D, Meso Scale Diagnostics, LLC, Gaithersburg, Md.). […] Conjugates prepared in accordance with Examples 2, 3 and 5 were tested, with the results following a 10 minute treatment provided in Table 4.

B16F10 melanoma tumor = assay: Antitumor activity of rIL-15 conjugates in B16F10 melanoma tumor (Example 9); format: in vivo, C57BL/6 mice; settings: conjugates 0.6 mg/kg i.v. once, IL-15 0.3 mg/kg i.p. every other day x6
Experimental: To test and compare the efficacy of rIL-15 conjugates in an in vivo model, syngenic tumors were induced in 6-8 week old female C57BL/6 mice by subcutaneously injecting, into post ventral abdominal region, mouse metastatic B16F10 melanoma cells at a density of 1×10^6 cells mL-1 in 100 μL volume of non-serum containing cell culture medium. The mice developed tumors of approximately 100 mm^3 by the end of 6-8 days. The mice were divided into six groups, each group consisting of 10 animals.
Groups A through D correspond to rIL-15 conjugates that were administered at 0.6 mg/kg body weight by intravenous injection to the mice only once while Group E represents unconjugated IL-15 administered every other day via intraperitoneal injection. Group F represents a vehicle control, wherein phosphate buffered saline was administered by intravenous injection.
Following dose administration, the mice were measured for changes in body weight and for the growth of subcutaneous metastatic melanoma tumors by digital calipers three times a week. Daily clinical signs were also monitored. The study end point was reached when the mean volume of the tumors reach 1500 mm^3 (i.e., a mean tumor volume of 1500 mm^3).

IL-15Rα = assay: Receptor affinities for IL-15Rα by Surface Plasmon Resonance (Example 10); format: binding; settings: SPR
Experimental: The affinities of IL-15 and rIL-15 conjugates were measured using Surface Plasmon Resonance (“SPR”). Briefly, the surface of a Biacore CMS sensor chip was activated using a 1:1 mixture of NHS:EDC to generate active NHS esters. Goat anti-human Fc antibody was covalently attached to the surface by injecting it for five minutes in 10 mM sodium acetate (pH 4). There were approximately 8000 RU of antibodies bound to the surface. Any remaining NHS ester was then quenched with ethanolamine
At the initiation of each injection cycle, IL-15-Rα-Fc was captured on a sensor chip channel by a five minute injection step in PBSP. Typically, 150-200 RU of receptors were bound on the surface.
rIL-15 conjugates were diluted to 10 μM in PBS (containing 0.05% Tween 20 and 0.1 mg/ml BSA). A series of 3-fold dilutions were made and injected onto a sensor chip which was coated with IL-15Rα. The affinities were measured by determining the ka and kd rates separately, and the ratio between kd and ka was used to calculate the Kd values.

[5] = days from the day of implantation
[6] = IL-15-Rα-Fc captured on sensor chip

| Substance | Kd (IL-15-Rα-Fc [1]) [nM] | koff (IL-15-Rα-Fc [2]) [s⁻¹] | kon (IL-15-Rα-Fc [2]) [M⁻¹ s⁻¹] | further results |
| --- | --- | --- | --- | --- |
| Fraction containing tri-PEG-rIL-15 from Example 5 ([mPEG2-ru-40K]-[rIL-15] conjugates) (from UniProt P40933 49-162) (ligand) | 9.4 | 0.0039 | 420000 | – |
| Fraction containing mono-PEG-rIL-15 from Example 5 ([mPEG2-ru-40K]-[rIL-15] conjugates) (from UniProt P40933 49-162) (ligand) | 3.56 | 0.00047 | 130000 | – |
| IL-15: recombinant human IL-15 obtained from PeproTech (catalog #200-15); unconjugated control | – | – | – | average pSTAT5 EC50 ([3]; at 5 minutes, average over two runs): 0.2071 ng/mL; pSTAT5 EC50 ([3]; at 10 minutes): 0.08187 ng/mL; EC50 (ng/mL) Ave ± SD [4]: 0.063 ± 0.028 ng/mL; Tumor Volume Doubling Time (500 mm^3) (B16F10 melanoma tumor): 2.9 days; Tumor Volume Doubling Time (1000 mm^3) (B16F10 melanoma tumor): 5.6 days; Time to reach 250 mm^3 (B16F10 melanoma tumor; [5]): 10.6 days; Time to reach 500 mm^3 (B16F10 melanoma tumor; [5]): 13.5 days; Time to reach 1000 mm^3 (B16F10 melanoma tumor; [5]): 19.1 days; Tumor growth delay for 250 mm^3 (B16F10 melanoma tumor; versus vehicle control Group F): 0.6 days; Tumor growth delay for 500 mm^3 (B16F10 melanoma tumor; versus vehicle control Group F): 0.9 days; Tumor growth delay for 1000 mm^3 (B16F10 melanoma tumor; versus vehicle control Group F): 4 days; ka (IL-15Rα; [6]): 7.5e+06 M⁻¹ s⁻¹; kd (IL-15Rα; [6]): 0.00028 s⁻¹; Kd (IL-15Rα; read-out: affinity (Kd)): 0.0038 nM |
| Fraction containing di- and tri-PEG-rIL-15 from Example 5 ([mPEG2-ru-40K]-[rIL-15] conjugates) (from UniProt P40933 49-162) (ligand) | 1.9 | 0.00088 | 460000 | – |

The remaining substances from weak to strong by Kd (IL-15-Rα-Fc [1]), led by results:

| Kd (IL-15-Rα-Fc [1]) [nM] | koff (IL-15-Rα-Fc [2]) [s⁻¹] | kon (IL-15-Rα-Fc [2]) [M⁻¹ s⁻¹] | Substance | further results |
| --- | --- | --- | --- | --- |
| 0.183 | 0.00049 | 2.6e+06 | Fraction containing di- and tri-PEG-rIL-15 from Example 2 ([mPEG2-ru-20K]-[rIL-15] conjugates) (from UniProt P40933 49-162) (ligand) | – |
| 0.043 | – | – | Fraction containing mono-PEG-rIL-15 from Example 2 ([mPEG2-ru-20K]-[rIL-15] conjugates) (from UniProt P40933 49-162) (ligand) | – |
| 0.0038 | – | – | recombinant IL-15 (unconjugated) (from UniProt P40933 49-162) (ligand) | – |
